From patent US20180118841A1
Where a chain is given by its changes, count along the chain named.

B1: anti-OX40 antibody 1170/1171 (antibody, V domains shown)
VH: EVQLLESGGGLVQPGGSLRLSCAASGFTFGGYYMSWVRQAPGKGLEWVSYIPGSGGSTYYADSVKGRFTISRDNSKNTLYLQMNSLRAEDTAVYYCARYDYYWMDYWGQGTLVTVSS
VL: DIQMTQSPSSLSASVGDRVTITCRASQSISSYLNWYQQKPGKAPKLLIYAASSLQSGVPSRFSGSGSGTDFTLTISSLQPEDFATYYCQQGHGSYPHTFGQGTKLEIK
B2: anti-CD137 antibody 1204/1205 (antibody, IgG1, V domains shown)
VH: EVQLLESGGGLVQPGGSLRLSCAASGFTFSSYYMGWVRQAPGKGLEWVSGIGSYYGYTGYADSVKGRFTISRDNSKNTLYLQMNSLRAEDTAVYYCARAYYDYNYYYAYFDYWGQGTLVTVSS
VL: B1 VL with G91S, H92V, G93P, S94H, H97F

How the values were obtained:
[1] = target: OX40 human/mouse chimera 1544 (human; mouse) (UniProt P47741); assay: FACS, 293-F transfectants; MFI/isotype control
OX40 human/mouse chimera 1544 (human; mouse), sequence (P47741 other isoform, or with tags, fused parts or gaps mutant limits assumed): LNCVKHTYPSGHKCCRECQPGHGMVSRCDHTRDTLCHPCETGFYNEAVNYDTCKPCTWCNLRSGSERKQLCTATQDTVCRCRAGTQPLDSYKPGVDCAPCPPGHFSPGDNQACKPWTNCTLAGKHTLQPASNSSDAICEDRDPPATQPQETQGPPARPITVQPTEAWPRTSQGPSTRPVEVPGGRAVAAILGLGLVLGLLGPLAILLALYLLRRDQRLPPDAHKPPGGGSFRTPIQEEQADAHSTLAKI

[2] = target: CD137 human/mouse chimera 1550 (human; mouse) (UniProt P20334); assay: FACS, 293-F transfectants; MFI/isotype, normalized to full-length CD137
CD137 human/mouse chimera 1550 (human; mouse), sequence (P20334 other isoform, or with tags, fused parts or gaps mutant limits assumed): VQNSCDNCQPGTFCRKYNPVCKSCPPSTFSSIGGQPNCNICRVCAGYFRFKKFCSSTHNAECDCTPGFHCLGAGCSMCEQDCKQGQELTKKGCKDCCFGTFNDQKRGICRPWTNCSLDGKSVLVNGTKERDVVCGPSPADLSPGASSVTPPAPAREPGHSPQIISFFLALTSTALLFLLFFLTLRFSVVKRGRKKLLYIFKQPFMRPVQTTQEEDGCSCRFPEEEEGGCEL

Binder | relative MFI [1] | relative binding [2]
B1 | 2 | –
B2 | – | 0.07
